Experimental data from US20230050846A1 (LIFESEARCH, published 2023).

B1: IF1-1-60 (peptide)
peptide: GSDQSENVDRGAGSIREAGGAFGKREQAEEERYFRAQSREQLAALKKHHEEEIVHHKKEI

Target: Human F1Fo-ATPase purified from HepG2 cells (human)
Assay: cell-based or functional assay

Binder | F1-ATPase activity (NADH-coupled assay, purified F1Fo-ATPase, 1 µM peptide), inhibition as compared to control
RGAGSIREAGGAFGKREQAEEERYFRAQSREQLAALKKHHEEEIVHH [IF1-10-56] | 88%
RGAGSIREAGGAFGKREQAEEERYFRAQSREQLAALKK [IF1-10-47] | 75%
B1 | 94%
